Data from PMC7810883, “Phosphorylation-induced changes in the PDZ domain of Dishevelled 3” (Scientific Reports, 2021).
Positions count from the first letter of the chain named. Non-standard residues stand in square brackets, D forms with d. pS = N[C@@H](COP(=O)(O)O)C(=O)O

Key:
[1] = target: T1, PDZ domain of human Dishevelled 3 (DVL3), aa 243-338, S280E (human, UniProt Q92997 243-338, S280E); test: NMR titration; 1H-15N HSQC of 100 uM 15N-labelled PDZ wt/mutant with increasing amounts of C-terminal peptide (stock 800 uM, up to four-fold over PDZ); 50 mM sodium-phosphate pH 6.5, 50 mM KCl; conditions: both partners purified
T1 construct: PDZ domain of human Dishevelled 3 (DVL3), residues 243-338, phosphomimetic mutant S280E; Made by site-directed mutagenesis of pETM11-PDZ; also called PDZ S280E; source: E. coli BL21(DE3), minimal media (15N or 15N,13C labelling), purified (Ni-NTA, TEV, Q-sepharose, SEC); not shown: His6, N-terminal, cleaved
T1 sequence (looked up): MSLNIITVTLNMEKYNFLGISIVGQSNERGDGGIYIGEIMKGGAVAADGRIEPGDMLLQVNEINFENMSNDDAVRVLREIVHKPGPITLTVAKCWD

[2] = target: T2, PDZ domain of human Dishevelled 3 (DVL3), aa 243-338, wild type (human, UniProt Q92997 243-338); test: as above; conditions: both partners purified
T2 construct: PDZ domain of human Dishevelled 3 (DVL3), residues 243-338; Cloned in pETM11; also called PDZ wt; hDvl3 PDZ WT domain; source: E. coli BL21(DE3), minimal media (15N or 15N,13C labelling), purified (Ni-NTA, TEV, Q-sepharose, SEC); not shown: His6, N-terminal, cleaved
T2 sequence (looked up): T1 sequence (looked up) with E38S

binding result [1]: binds
binding result [2]: binds
B1: C-terminal DVL peptide consisting of aa 698-716 from DVL3 with phosphorylated pS700 (peptide, UniProt Q92997 698-716, looked up)
peptide: H-RQ[pS]FRMAMGNPSEFFVDVM-OH
notes: C-terminus of human Dishevelled 3 (DVL3), residues 698-716; The phosphorylation at S700 is told only in the methods; also called C-terminal peptide (698-716); C-terminus ligand
